Eight sequences from the DeepSol protein solubility set can be followed below.

A short description of the data set: soluble on expression in E. coli; label from the status in PepcDB or PDB records.
As for “MSLIQIENQTVSGIPFLHIVKEENRHRAVPLVIFIHGFTSAKEHNLHIAYLLAEKGFRAVLPEALHHGERGEEMAVEELAGHFWDIVLNEIEEIGVLKNHFEKEGLIDGGRIGLAGTSMGGITTLGALTAYDWIKAGVSLMGSPNYVELFQQQIDHIQSQGIEIDVPEEKVQQLMKRLELRDLSLQPEKLQQRPLLFWHGAKDKVVPYAPTRKFYDTIKSHYSEQPERLQFIGDENADHKVPRAAVLKTIEWFETYLEGGSHHHHHH”, the “soluble on expression in E. coli” value is “soluble”.

Consider “MSLIRDMQLSRFSIPFAAPIRVGGQELNKRDGLLVAVRDDQGHTGWGEAAPLPGLDTISLDQCQGELCPIRKAFADQALNWDSFSLTAPMMGLCPEIPGLNPISAFGVESALAWLGLCSGQWGIAGADELGIAVNGLFVPSPDPDRLPAQAKQLKASGFSTVKIKIGRMDSDDEIRQILELDSLFNHKLALRLDANRSLDFAQYQSYFEALKHLNIEYVEEPLKPEYDFFEAAQIPWPLALDESLESYANLDEPFPKSLGAVILKPGSFQGVHGMAQAMEHLHTQGIKTVLSSSFNNTMGMSMLGLLANLYAPETAHGLDTLKYFQPSDLSLGLSIAKGRMAIPVDLFGGGLNLASGLMEEIAEGHHHHHH”, for which the “soluble on expression in E. coli” value is given as “soluble”.

For “MSLITVVIIDDDPFVTKSLQTILESTKEIRVLGIGHCAKDALVLYETHRPDVLLTDIRMPKQTGIDAAKEILAKFPKAILLLLTTFKDEEYIREAFSIGVKGYLIKQNLQAIIPSVKSAYNGQAVFGNEIIETFTQMMKNKPTIDSHAYASFSERELAIIKEVAAGKNNKEIADALYLSDGTVRNYISQLLEKLDLRDRTQLAIYFYQHLQEGHHHHHH”, the “soluble on expression in E. coli” value is reported as “not soluble”.

Regarding “MSLIVKFCGFKTESDIKKIKKLEVDAVGFIHYPDSKRHVSLKQLKYLAKIVPDHIEKVVVVVNPQMSTIKRIINQTDINTIQLHGNESIQLIRNIKKLNSKIRIIKAIPATRNLNNNIQKYKDEIDMFIIDTPSITYGGTGQSFDWKLLKKIKGVDFLIAGGLDFEKIKRLEIYSFGQCGYDISTGIESHNEKDFNKMTRILKFLKGDEGHHHHHH”, the “soluble on expression in E. coli” value was “not soluble”.

As to “MSLIYSGKFRIGVQDEAALQMLHDPEKLGPCLPGVSSFERNDDGYSCKVRLDVSSMGSSYLSKISGKLAFSYLDSENRTIHVQGKGRIAGSSISFDLFISVNGGELIWKIDVNYGILIKMMGEEKIRDVTQANIDRSVKCLSSVLCQEGHHHHHH”, the “soluble on expression in E. coli” value was “soluble”.

Take “MSLKAAVLHGTNDMRFEDIEIKPCESDEVKIKVMAAGICGSDPPRVLKHWKYPVPAIPGHEFSGVIAEVGKDVKNVKVGDRVVAIPFIPCNECEYCKRGLFSLCDDHGMLGAKSFGAFAEYVNIKATNVLPIGDMDFEDAAMIEPLAVAMHGVLNIGVQVGDTVAVMGSGTMGQLVIQGLKIAGAGTIIAVDISDNKLRESKELGADIIINAKDINPVEKIKELTGGKGVDIALECAGSKITQEQCLLITKKKSKIGFLGIAYSDITLSEEAFENIFRKELELKGFWNSYSAPFPGQEWTKGINLVNEGKIKLKEMVSHRFSLEDTYKAFEMIRDRKEEFNKILILPQGVEGHHHHHH”: the “soluble on expression in E. coli” value was “soluble”.

As to “MSLKANFYKNRVCLNVLAGSVDNAADIYDAAEGHVLVGVLSKNYPDVDTAVEDMKKYSEVTNNAVSVGLGAGDPNQSMMVSLISQHVQPQHINQVFTGVATSRALAGQDKSIVNGLISPTGTVGMVKISTGPLSSRSEDAIVPVETAIAMLKDMGGSSVKYFPMGGLETREEFACVAKACADKDFWLEPTGGIDLENYEEIMQIALDAGVSKIIPHIYSSIIDKATGNTRPEDVKTLLDMTKKLLN”, the “soluble on expression in E. coli” value is given as “soluble”.

With “MSLKDINIGVVLPLTGTVAAYGQDVFNGIELANKLQPKLSNGDVIKLITIDTKGDKLETSNGVNRLIATDKVLGIIGEATTPNTIQAISIAEEKKIPLIAPVASGDKLLDKKKYASRVCFKDSFQGDKFATYVSKDLGLKNAVIIIDQSNVYSLGLARAFENSFKNNGGKIIKKLVINSGDKDFRAVVSQLKSLNPDFVYMPIYHPEAALIARQARQIGFDKLLVAGDGVNNQTFIDLGGSAVNGVIFTDSFDYNSPSTQLGKDFVAAYEKVKGTKELPAFSAMGADAYFVMLNAMNACVDNLSSECINSKIHQTKDFQAVGGVISIDESGNAIRSVVIKEIQNQKQNYKTIINEGHHHHHH”, the “soluble on expression in E. coli” value is “soluble”.
